Measurements as given in publication PMC4874933.
No end group written: not given here.

Biological target: fibrils composed of synthetic human λ6 variable domain (rVλ6Wil) (human)
Test: co-sedimentation

For GGGYSKAQKAQAKQAKQAQKAQKAQAKQAKQAQKAQKAQAKQAKQA (also: Tc-99m label coupled directly, site not characterised) [Tc-99m labeled GGGY-p5+14 peptide], which % bound is on record?
The % bound was 58%.
